± gives the uncertainty stated by the source.
B1: Transcriptional regulator ERG, residues 117 to 197; numbered along this chain, P11308 (parent)
chain: NMTTNERRVIVPADPTLWSTDHVRQWLEWAVKEYGLPDVNILLFQNIDGKELCKMTKDDFQRLTPSYNADILLSHLHYLRE

Variants of: B1
Assay: abundance fitness (aPCA) (normalised: wild type 0, dead -1); higher = more abundant; growth selection in yeast, the domain comes from the species named
Conditions: Homo sapiens

Abundance fitness: each site, then its substitutions
D58: L -0.03 ± 0.056 | N -0.169 ± 0.13 | T -0.072 ± 0.087 | F -0.096 ± 0.16 | R 0.011 ± 0.046 | G -0.078 ± 0.042 | C -0.134 ± 0.092 | W -0.132 ± 0.066 | I 0.055 ± 0.14 | Y 0.004 ± 0.12 | P 0.103 ± 0.1 | H 0.202 ± 0.18 | A 0.039 ± 0.054 | S -0.1 ± 0.084 | K -0.063 ± 0.12 | Q -0.088 ± 0.083
S66: K -0.056 ± 0.071 | I -0.178 ± 0.11 | A 0.058 ± 0.063 | Q -0.012 ± 0.075 | N 0.11 ± 0.13 | C -0.005 ± 0.14 | W -0.28 ± 0.076 | F -0.039 ± 0.11 | R -0.057 ± 0.054 | P 0.03 ± 0.1 | L -0.239 ± 0.062 | M -0.295 ± 0.098 | H -0.107 ± 0.13 | E 0.03 ± 0.069 | V -0.117 ± 0.061 | T -0.12 ± 0.098 | D -0.185 ± 0.12 | G -0.025 ± 0.047
K54: F -0.227 ± 0.14 | I -0.377 ± 0.17 | R -0.049 ± 0.046 | S 0.092 ± 0.055 | N -0.054 ± 0.09 | L -0.103 ± 0.055 | P -1.08 ± 0.32 | C -0.112 ± 0.095 | Q -0.118 ± 0.12 | E 0.072 ± 0.055 | T -0.094 ± 0.084 | G -0.028 ± 0.037 | Y -0.117 ± 0.099 | V -0.238 ± 0.063 | W -0.41 ± 0.09 | H -0.071 ± 0.099 | D 0.021 ± 0.099
L63: K -0.213 ± 0.073 | P -0.567 ± 0.23 | G -0.547 ± 0.056 | Q -0.459 ± 0.17 | C -0.215 ± 0.079 | I 0.097 ± 0.15 | A -0.238 ± 0.092 | R -0.153 ± 0.041 | H -0.18 ± 0.1 | E -0.691 ± 0.092 | M -0.003 ± 0.067 | Y -0.027 ± 0.098 | W -0.179 ± 0.05 | V -0.092 ± 0.041 | N -0.571 ± 0.15 | T -0.476 ± 0.18 | S -0.46 ± 0.086 | F -0.071 ± 0.11
T64: G -0.141 ± 0.039 | D 0.041 ± 0.077 | F 0.025 ± 0.15 | E -0.175 ± 0.06 | Q -0.135 ± 0.069 | W -0.091 ± 0.052 | I -0.345 ± 0.12 | C -0.076 ± 0.084 | A -0.034 ± 0.053 | N 0.02 ± 0.12 | V -0.028 ± 0.042 | M 0.011 ± 0.056 | S -0.155 ± 0.048 | K -0.576 ± 0.12
M55: G -0.807 ± 0.087 | K -0.315 ± 0.097 | L -0.023 ± 0.059 | D -0.745 ± 0.34 | F -0.136 ± 0.12 | Q -0.924 ± 0.24 | E -1.09 ± 0.24 | C -0.278 ± 0.1 | A -0.842 ± 0.18 | W -0.091 ± 0.069 | N -0.37 ± 0.25 | R -0.65 ± 0.098 | I -0.431 ± 0.18 | S -1.14 ± 0.28 | T -0.703 ± 0.18
K57: T -0.14 ± 0.088 | S -0.024 ± 0.062 | C -0.264 ± 0.12 | I 0.18 ± 0.12 | N -0.234 ± 0.14 | E -0.023 ± 0.061 | R -0.016 ± 0.042 | F -0.15 ± 0.15 | D -0.093 ± 0.095 | L -0.084 ± 0.055 | A 0.029 ± 0.055 | P -0.028 ± 0.088 | V -0.127 ± 0.055 | Q -0.159 ± 0.11 | M -0.165 ± 0.084
D70: L -0.24 ± 0.053 | E 0.07 ± 0.049 | T -0.157 ± 0.078 | V -0.176 ± 0.056 | R -0.036 ± 0.038 | F -0.448 ± 0.25 | A -0.169 ± 0.058 | G -0.05 ± 0.038 | M -0.237 ± 0.084 | P -0.316 ± 0.13 | Q -0.042 ± 0.062 | N -0.143 ± 0.1 | S -0.1 ± 0.056 | K -0.097 ± 0.081 | H -0.011 ± 0.15
E51: S 0 ± 0.038 | C -0.127 ± 0.058 | F -0.277 ± 0.1 | W -0.267 ± 0.042 | K -0.025 ± 0.061 | V -0.051 ± 0.037 | H -0.113 ± 0.077 | I -0.319 ± 0.16 | R 0.001 ± 0.033 | M -0.054 ± 0.056 | P -0.897 ± 0.14 | T 0.026 ± 0.052 | N -0.092 ± 0.096 | A 0.02 ± 0.04 | D -0.087 ± 0.062 | G 0.022 ± 0.031 | Y -0.026 ± 0.061 | Q -0.017 ± 0.049
D59: W -0.743 ± 0.18 | A 0.068 ± 0.078 | Q -0.04 ± 0.12 | S -0.155 ± 0.1 | Y -0.666 ± 0.33 | V -0.232 ± 0.073 | C 0.027 ± 0.13 | M -0.204 ± 0.12 | H -0.244 ± 0.24 | L -0.765 ± 0.18 | N -0.24 ± 0.13 | R -0.154 ± 0.067 | K -0.199 ± 0.12 | F -0.538 ± 0.31 | E -0.09 ± 0.075 | G -0.204 ± 0.053 | T 0.059 ± 0.13
L52: W -0.809 ± 0.18 | I -0.126 ± 0.054 | A -0.695 ± 0.12 | Q -0.946 ± 0.17 | C -0.928 ± 0.22 | H -0.689 ± 0.11 | M -0.324 ± 0.071 | G -0.694 ± 0.17 | R -0.77 ± 0.11 | F -0.327 ± 0.07 | V -0.308 ± 0.069 | P -0.886 ± 0.12 | K -0.728 ± 0.11 | E -0.367 ± 0.18 | S -0.932 ± 0.12 | T -1.11 ± 0.17 | Y -0.883 ± 0.13 | N -0.97 ± 0.17
A69: P -0.124 ± 0.14 | W -0.203 ± 0.14 | Q -0.564 ± 0.49 | G -0.124 ± 0.054 | T -0.219 ± 0.14 | L -0.658 ± 0.17 | K -0.445 ± 0.17 | R -0.748 ± 0.12 | M -0.186 ± 0.11 | V -0.039 ± 0.057 | S -0.352 ± 0.23
C53: Y -0.509 ± 0.12 | H -0.574 ± 0.09 | Q -0.269 ± 0.082 | A -0.132 ± 0.048 | G -0.262 ± 0.058 | L 0 ± 0.038 | P -1.06 ± 0.19 | I -0.099 ± 0.051 | E -0.471 ± 0.11 | T -0.06 ± 0.046 | V -0.034 ± 0.041 | D -0.325 ± 0.085 | M 0.043 ± 0.058 | W -0.561 ± 0.11 | S -0.15 ± 0.046 | F -0.235 ± 0.054 | N -0.228 ± 0.072 | R -0.391 ± 0.072
Y67: V 0.019 ± 0.062 | E 0.037 ± 0.072 | K -0.097 ± 0.1 | A 0.016 ± 0.063 | P 0.036 ± 0.09 | F -0.242 ± 0.15 | C 0.127 ± 0.098 | G 0.078 ± 0.042 | N 0.138 ± 0.12 | L -0.03 ± 0.072 | S 0.075 ± 0.07 | M -0.14 ± 0.1 | D 0.199 ± 0.096 | I -0.16 ± 0.19 | Q 0.079 ± 0.12 | T 0.113 ± 0.072 | H 0.033 ± 0.15
K50: W -0.05 ± 0.04 | T 0.014 ± 0.048 | R -0.032 ± 0.031 | V -0.009 ± 0.035
F60: C -0.306 ± 0.11 | R -0.866 ± 0.14 | T -0.902 ± 0.32 | E -1.18 ± 0.39 | V -0.083 ± 0.054 | S -0.536 ± 0.15 | L -0.093 ± 0.061 | Y -0.365 ± 0.2 | W 0.017 ± 0.062 | M 0.13 ± 0.089 | Q -1.05 ± 0.35 | A -0.401 ± 0.08 | G -0.971 ± 0.12 | I 0.074 ± 0.11 | H -0.633 ± 0.41 | D -0.773 ± 0.41
R62: C -0.072 ± 0.084 | H -0.165 ± 0.14 | D 0.02 ± 0.067 | G -0.06 ± 0.054 | K 0.017 ± 0.092 | Y -0.138 ± 0.091 | L -0.152 ± 0.069 | F -0.112 ± 0.11 | S -0.095 ± 0.062 | E -0.073 ± 0.083 | A 0.022 ± 0.054 | N 0.015 ± 0.09 | P -0.399 ± 0.13 | M 0.097 ± 0.089 | T -0.162 ± 0.12 | Q 0.067 ± 0.11 | V -0.063 ± 0.061 | I 0.03 ± 0.077 | W -0.26 ± 0.1
Q61: N -0.06 ± 0.09 | C -0.037 ± 0.079 | I 0.193 ± 0.33 | E 0.056 ± 0.061 | W -0.101 ± 0.065 | M 0.096 ± 0.076 | V -0.002 ± 0.047 | K 0.044 ± 0.094 | A 0.011 ± 0.049 | S -0.032 ± 0.05 | G -0.021 ± 0.038 | D -0.037 ± 0.12 | R -0.026 ± 0.041 | Y -0.058 ± 0.1 | F -0.042 ± 0.15 | T 0.105 ± 0.068 | H 0.173 ± 0.11 | P -0.617 ± 0.18
P65: M 0.048 ± 0.077 | S 0.044 ± 0.076 | Y 0.109 ± 0.28 | Q -0.265 ± 0.12 | A 0.025 ± 0.052 | C 0.051 ± 0.087 | H 0.135 ± 0.22 | L -0.146 ± 0.11 | N -0.271 ± 0.25 | K -0.107 ± 0.09 | F 0.342 ± 0.29 | R -0.017 ± 0.046 | G -0.004 ± 0.036 | W -0.109 ± 0.077 | E -0.088 ± 0.057 | I -0.449 ± 0.27 | T 0.02 ± 0.093 | D 0.07 ± 0.089
N68: E 0.085 ± 0.049 | P 0.017 ± 0.064 | F -0.468 ± 0.19 | D 0.021 ± 0.092 | I -0.079 ± 0.12 | V 0.008 ± 0.046 | L -0.48 ± 0.081 | Q 0.085 ± 0.066 | A 0.013 ± 0.047 | M -0.155 ± 0.08 | K -0.266 ± 0.08 | S 0.011 ± 0.054 | C -0.212 ± 0.1 | R -0.275 ± 0.045
T56: D -0.01 ± 0.081 | H -0.123 ± 0.23 | Q -0.108 ± 0.14 | G 0.042 ± 0.041 | N -0.076 ± 0.11 | K 0.081 ± 0.087 | L -0.265 ± 0.07 | M -0.282 ± 0.12 | P -0.632 ± 0.2 | C -0.024 ± 0.17 | R -0.082 ± 0.051 | I -0.236 ± 0.17 | F -0.502 ± 0.19 | E -0.058 ± 0.07 | S 0.077 ± 0.072 | Y -0.457 ± 0.16 | A -0.118 ± 0.077 | V -0.066 ± 0.056

Source: the Human Domainome abundance scans (Beltran et al. 2025)
